{"source": "patent US20260049134A1", "about": "(UNIVERSITY OF FLORIDA RESEARCH FOUNDATION, published 2026)", "key": {"[1]": {"biological_target": "T1, CADM1, endogenous in H929 multiple myeloma cells (human, UniProt Q9BY67 45-442)", "T1 construct": "Native protein on H929 cells (flow cytometry, siRNA knockdown) and in H929 lysates (IP/MS); RPMI-8226 cells were used for sorting with HW-97; also called IGSF4A", "T1 sequence": "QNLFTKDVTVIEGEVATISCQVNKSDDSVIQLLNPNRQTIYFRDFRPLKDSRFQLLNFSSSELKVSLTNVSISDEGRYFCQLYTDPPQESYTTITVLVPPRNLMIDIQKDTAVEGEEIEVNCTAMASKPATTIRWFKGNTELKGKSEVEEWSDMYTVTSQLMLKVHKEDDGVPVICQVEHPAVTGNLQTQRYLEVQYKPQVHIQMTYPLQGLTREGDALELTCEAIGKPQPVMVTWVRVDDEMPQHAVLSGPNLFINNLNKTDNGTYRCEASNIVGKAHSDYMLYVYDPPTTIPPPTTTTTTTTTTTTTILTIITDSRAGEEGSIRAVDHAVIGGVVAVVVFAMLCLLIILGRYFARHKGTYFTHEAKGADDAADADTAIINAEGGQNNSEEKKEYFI", "experiment": "flow cytometry, H929 + vehicle; None 513"}, "[2]": {"biological_target": "T2, PTPRG-Fc (ECD of human PTPRG, aa 20-736, fused to human Fc gamma 1) (human, UniProt P23470 20-736)", "T2 construct": "Made in-house in Expi293 cells; Used in ELISA and SPR; also called recombinant PTPRG-Fc; PTRPG; not shown: human IgG1 Fc (Fc gamma 1) after the hinge", "T2 sequence": "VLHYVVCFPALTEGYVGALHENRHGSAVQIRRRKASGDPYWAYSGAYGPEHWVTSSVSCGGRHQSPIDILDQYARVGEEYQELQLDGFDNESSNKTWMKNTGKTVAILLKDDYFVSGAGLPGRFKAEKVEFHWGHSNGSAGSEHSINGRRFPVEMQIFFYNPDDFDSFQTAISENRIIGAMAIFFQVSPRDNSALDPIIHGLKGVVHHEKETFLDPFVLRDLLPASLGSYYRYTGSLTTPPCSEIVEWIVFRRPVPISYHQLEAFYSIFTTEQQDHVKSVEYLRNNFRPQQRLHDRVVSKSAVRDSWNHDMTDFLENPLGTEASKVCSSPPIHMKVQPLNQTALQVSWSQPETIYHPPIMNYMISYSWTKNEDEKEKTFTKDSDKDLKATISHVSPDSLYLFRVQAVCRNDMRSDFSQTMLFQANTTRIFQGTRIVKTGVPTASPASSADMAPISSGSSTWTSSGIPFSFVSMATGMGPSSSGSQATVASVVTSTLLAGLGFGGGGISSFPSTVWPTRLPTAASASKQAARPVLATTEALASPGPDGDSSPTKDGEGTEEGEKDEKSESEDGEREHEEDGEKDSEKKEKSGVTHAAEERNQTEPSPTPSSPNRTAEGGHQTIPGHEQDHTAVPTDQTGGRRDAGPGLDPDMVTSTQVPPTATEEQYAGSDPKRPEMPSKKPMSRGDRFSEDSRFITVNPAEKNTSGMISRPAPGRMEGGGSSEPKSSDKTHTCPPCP", "experiment": "ELISA on coated protein"}, "[3]": {"biological_target": "T3, CADM1-His (Acro Biosystems) (human, UniProt Q9BY67 45-374)", "T3 construct": "Bought; also called CADM1/IGSF4A; not shown: His tag of the bought protein", "T3 sequence": "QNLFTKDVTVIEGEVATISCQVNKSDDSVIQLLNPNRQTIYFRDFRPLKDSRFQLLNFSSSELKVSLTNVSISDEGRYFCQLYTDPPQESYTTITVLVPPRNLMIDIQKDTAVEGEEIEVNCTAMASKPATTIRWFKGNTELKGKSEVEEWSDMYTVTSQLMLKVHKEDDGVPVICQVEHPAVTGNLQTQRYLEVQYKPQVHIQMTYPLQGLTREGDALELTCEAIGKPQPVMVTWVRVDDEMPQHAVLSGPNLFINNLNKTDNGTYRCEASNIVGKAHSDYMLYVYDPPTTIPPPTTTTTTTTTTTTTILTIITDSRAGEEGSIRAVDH", "experiment": "ELISA on coated protein"}, "CADM1 on RPMI-8226 cells": {"biological_target": "T4, CADM1 on RPMI-8226 cells (human, UniProt Q9BY67)", "T4 sequence (single chain, looked up)": "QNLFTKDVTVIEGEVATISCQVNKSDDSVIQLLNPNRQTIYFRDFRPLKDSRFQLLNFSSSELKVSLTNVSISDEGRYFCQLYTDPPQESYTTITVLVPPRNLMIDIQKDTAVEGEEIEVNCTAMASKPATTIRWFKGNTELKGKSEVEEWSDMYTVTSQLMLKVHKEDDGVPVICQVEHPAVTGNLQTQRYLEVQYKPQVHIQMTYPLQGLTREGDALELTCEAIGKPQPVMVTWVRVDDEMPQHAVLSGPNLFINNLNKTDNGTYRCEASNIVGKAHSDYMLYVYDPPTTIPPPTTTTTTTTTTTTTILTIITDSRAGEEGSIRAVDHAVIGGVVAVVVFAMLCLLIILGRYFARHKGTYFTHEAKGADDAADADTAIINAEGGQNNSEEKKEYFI", "experiment": "flow cytometry, IgG1 on RPMI-8226 cells", "description": "Staining protocol. Cells were harvested (5×10⁴ cells per sample), washed once with phosphate-buffered saline (PBS) at RT, and a second time with ice-cold FACS buffer (PBS, 0.5% BSA, 2 mM EDTA, 0.1% NaN₃). Cells were stained in 50 μL of primary antibody for 30 min on ice, washed twice with 100 μL FACS buffer, stained with 50 μL of diluted secondary antibody, washed two more times in FACS, and then resuspended in 50 μL FACS buffer. Samples were acquired on an Accuri C6 Plus or a BD FACSCanto II flow cytometer (both from BD Biosciences). Data were analyzed using FlowJo version 10 software. Primary antibodies: Fab (10 μg/mL), IgG1 (0.1 to 50 μg/mL), or 25 μL polyclonal Fabs from periplasmic extracts. Polyclonal Fabs were produced by diluting bacterial stocks by a factor of 100 in autoinduction media and incubating overnight to induce expression as previously described. […] Viability stains: DAPI (Cell Signaling Technology) or SYTOX AADvanced Dead Cell Stain (Thermo Fisher Scientific). Labeling: The panel of chimeric rabbit/human IgG1s was labeled using the Alexa Fluor 647 Labeling Kit (Thermo Fisher Scientific, #A20173) to facilitate single-step staining. Competition: Unlabeled IgG1s were added at saturating concentrations of 60 μg/mL to block the target receptors, incubating on ice for 30 min, followed by the addition of an equal volume of the Alexa Fluor 647 labeled antibody at 2 μg/mL, and the mixture was incubated on ice for another 30 min."}}, "data": [{"binder": "TH9-0022 (antibody, human IgG1, kappa, L234A L235A, V domains shown, also called TH9-022; negative control) VH: QSLEESGGRLVTPGTPLTLTCTVSGFSLSSYAMNWVRQAPGKGLEWIGIINSYGSTYYASWAKGRFTISKTSTTVDLKITSPTTEDTATYFCARVTYDSYGYGYAPYGMDLWGPGTLVTVSS VL: LVMTQTPSSTSNAVGGTVTIKCQASQSIGNVLAWYQQKPGQPPKLLIYAASTLASGVPSRVGGSRSGTEYTLTISGVQREDAATYYCLGSDSDSDIAFGGGTELEILR", "values": [{"measurement": "mAb binding (MFI)", "setting": "[1]", "value": 595}]}, {"binder": "TH9-0022 (antibody, human IgG1, kappa, L234A L235A, V domains shown, also called TH9-022; negative control IgG1) VH: QSLEESGGRLVTPGTPLTLTCTVSGFSLSSYAMNWVRQAPGKGLEWIGIINSYGSTYYASWAKGRFTISKTSTTVDLKITSPTTEDTATYFCARVTYDSYGYGYAPYGMDLWGPGTLVTVSS VL: LVMTQTPSSTSNAVGGTVTIKCQASQSIGNVLAWYQQKPGQPPKLLIYAASTLASGVPSRVGGSRSGTEYTLTISGVQREDAATYYCLGSDSDSDIAFGGGTELEILR", "values": [{"measurement": "binding result", "setting": "[2]", "value": "no binding (tested: 150 ng IgG1 per well)"}, {"measurement": "binding result", "setting": "[3]", "value": "no binding (tested: 150 ng IgG1 per well)"}, {"measurement": "antibody-bound positive cells (%)", "setting": "CADM1 on RPMI-8226 cells", "value": 3, "unit": "%"}, {"measurement": "binding result", "setting": "CADM1 on RPMI-8226 cells", "value": "no binding"}]}, {"binder": "HW-1 chimeric rabbit-human IgG1 LA/LA/PG (antibody, V domains shown, Fc-silenced (L234A/L235A/P329G) IgG1, lambda; Alexa Fluor 647-labeled in single-step flow cytometry; Prototype of cluster C-1) VH: QSLEESGGGLFKPTDTLTLTCTASGFSLGSSYAISWVRQAPGKELEWIGTIDSGRAYYARWAKSRSTITRNTNENTVTLKMTSLTAADTATYFCARDLIPTYSQDIWGPGTLVTISS VL: SFVLTQPASVQVNLGQTVSLTCTADTLSRRYASWYQQKPGQAPVLLIYRDTSRPSGVPDRFSGSSSGNTATLTISGAQAGDEADYYCATSDGSGNSYQYVFGGGTQLTVTS", "values": [{"measurement": "binding result", "setting": "[3]", "value": "no binding (tested: 150 ng IgG1 per well)"}]}, {"binder": "HW-17 chimeric rabbit-human IgG1 LA/LA/PG (antibody, V domains shown, Fc-silenced (L234A/L235A/P329G) IgG1, lambda; Alexa Fluor 647-labeled in single-step flow cytometry; Cluster C-1) VH: QSLGESRGRLVTPDETLTLTCTVSGIDLSSNAMSWVRQAPGEGLEWIGTINTGGRAYYASWAKGRFTISRTSTTVDLKMTSLTTEDTATYFCARERYSDGRAYDIWGPGTLVTISS VL: SFVLTQPASVQVNLGQTVSLTCTADTLSRRYASWYQQKPGQAPVLLIYTDSNRPSGIPDRFSGSSSGNTATLTISGAQAGDEADYYCATDDGSGSIYQYVFGGGTQLTVTG", "values": [{"measurement": "binding result", "setting": "[3]", "value": "no binding (tested: 150 ng IgG1 per well)"}]}, {"binder": "HW-113 chimeric rabbit-human IgG1 LA/LA/PG (antibody, V domains shown, Fc-silenced (L234A/L235A/P329G) IgG1, lambda; Alexa Fluor 647-labeled in single-step flow cytometry) VH: QKQLVESGGGLVQPGGSLTLTCTVSGFSLNKYYMGWFRQAPGKGLEWIGVISRSGDTYYSSWAKGRFTISKASTTVDLRITSPTTEDTATYFCARDASSPGFHGDRLDLWGQGTLVTVSS VL: SFVLTQPASVQVNLGQTVSLTCTADTLSRSYASWYQQKPGQAPVLLIYRDTSRPSGVPDRFSGSSSGNTATLTISGAQAGDEADYYCATSDGIGSNYLWVFGGGTQLTVTG", "values": [{"measurement": "binding result", "setting": "[2]", "value": "no binding (tested: 150 ng IgG1 per well)"}, {"measurement": "binding result", "setting": "[3]", "value": "no binding (tested: 150 ng IgG1 per well)"}]}, {"binder": "HW-97 chimeric rabbit-human IgG1 LA/LA/PG (antibody, V domains shown, Fc-silenced (L234A/L235A/P329G) IgG1, lambda; Alexa Fluor 647-labeled in single-step flow cytometry; Prototype of cluster C-97) VH: QKQLVESGGRLVTPGTPLTLTCTVTGIDLSSHGMSWVRQAPGKGLEWIGVIYPSGSTWYASWARGRFTISKTSTTVDLKMTSLTTEDTATHFCARGDVGGADNNIWGPGTLVTVSS VL: SFVLTQPASVQVDLGQTVSLTCTAETLSRSYASWYQQKPGQAPVLLIYRDTSRPSGVPDRFSGSSSGNTATLTISGAQAGDEADYYCATSDGSGSSYQYVFGGGTQLTVTG", "values": [{"measurement": "binding result", "setting": "[2]", "value": "no binding (tested: 150 ng IgG1 per well)"}, {"measurement": "antibody-bound positive cells (%)", "setting": "CADM1 on RPMI-8226 cells", "value": 98.8, "unit": "%"}, {"measurement": "mAb binding (MFI)", "setting": "[1]", "value": 9510}]}, {"binder": "HW-101 chimeric rabbit-human IgG1 LA/LA/PG (antibody, V domains shown, Fc-silenced (L234A/L235A/P329G) IgG1, lambda; Alexa Fluor 647-labeled in single-step flow cytometry; Cluster C-97) VH: QEQLVESGGRLVTPGTPLTLTCKASGFSLGKYDMSWVRQAPGKGLEWIGTIYAGSGSTWYASWAKGRFTISKTSTTVDLKMTSLTTEDTATYFCARDFLGVNSIWGPGTLVTISS VL: SFVLTQPASVQVNLGQTVSLTCTADTLSRSYASWYQQKPDQAPVLLIHRDTSRPSGVPDRFSGSNSGNTATLTISGAQAGDEADYYCATSDGSGSNFHFVFGGGTQLTVTG", "values": [{"measurement": "binding result", "setting": "[2]", "value": "no binding (tested: 150 ng IgG1 per well)"}, {"measurement": "antibody-bound positive cells (%)", "setting": "CADM1 on RPMI-8226 cells", "value": 97.6, "unit": "%"}, {"measurement": "mAb binding (MFI)", "setting": "[1]", "value": 5940}]}, {"binder": "HW-8 chimeric rabbit-human IgG1 LA/LA/PG (antibody, V domains shown, Fc-silenced (L234A/L235A/P329G) IgG1, kappa; Alexa Fluor 647-labeled in single-step flow cytometry; Cluster C-45) VH: QSLEESGGRLVTPGTPLTLTCTVSGFSLSSYAMSWVRQAPGKGLEWIGAISTGGSTTYASWAKGRFTISKTSSTTVDLKMTSLTTEDTATYFCVRHFRLWGPGTLVTISS VL: QVLTQTPSSVSAAVGGTVTIKCQASQSIGSALAWFQQKPGQRPKLLIYRASNLASGVPSRFKGSGSGTEFALTISGVQREDAATYYCLGGAAAVWAFGAGTNVEIKR", "values": [{"measurement": "binding result", "setting": "[2]", "value": "no binding (tested: 150 ng IgG1 per well)"}, {"measurement": "binding result", "setting": "[3]", "value": "no binding (tested: 150 ng IgG1 per well)"}]}]}
